Numbered stars: 1 amine (or outer) side, 2 acyl side, 3 side chain; on linkers, the order of the positions; unused ones are H or OH. Square brackets hold non-standard residues; d marks the D form. Side chains are listed from the residue outwards. Ends that are not written are not given here. * marks the point of attachment. C20 diacid = O=C(O)CCCCCCCCCCCCCCCCCCC(=O)*; αMePhe(2-F) = C[C@](N)(Cc1ccccc1F)C(=O)O; γGlu = O=C(O)[C@H](CCC(=O)[*:2])N[*:1]; αMeF = C[C@](N)(Cc1ccccc1)C(=O)O; αMeL = CC(C)C[C@](C)(N)C(=O)O; cTA = not defined here; AEEA = NCCOCCOCC(=O)O; Aib = CC(C)(N)C(=O)O
Biological target: human GLP-1 receptor (human, UniProt P43220 24-463)
Experiment: cell-based or functional assay

Binder | hGLPIR cAMP EC50 ratio
YXEGTXTSDYSIXLDKKAQXEFIEYLIEGGPSSG (Aib2; αMeF6; αMeL13; K17((2-[2-(2-Amino-ethoxy)-ethoxy]-acetyl)2-(γGlu)-CO-(CH2)18-CO2H); Aib20; C-terminal NH2) [Peptide 123] | 1.58
Y[Aib]EGT[αMePhe(2-F)]TSDHSI[αMeL]LDEK([AEEA-AEEA-γGlu-C20 diacid])AQ[Aib]TFI[dE]YLIEGGPSSG-NH2 (N-terminus assumed; SMILES CC[C@H](C)[C@H](NC(=O)[C@H](CC(C)C)NC(=O)[C@H](Cc1ccc(O)cc1)NC(=O)[C@@H](CCC(=O)O)NC(=O)[C@@H](NC(=O)[C@H](Cc1ccccc1)NC(=O)[C@@H](NC(=O)C(C)(C)NC(=O)[C@H](CCC(N)=O)NC(=O)[C@H](C)NC(=O)[C@H](CCCCNC(=O)COCCOCCNC(=O)COCCOCCNC(=O)CC[C@H](NC(=O)CCCCCCCCCCCCCCCCCCC(=O)O)C(=O)O)NC(=O)[C@H](CCC(=O)O)NC(=O)[C@H](CC(=O)O)NC(=O)[C@H](CC(C)C)NC(=O)[C@](C)(CC(C)C)NC(=O)[C@@H](NC(=O)[C@H](CO)NC(=O)[C@H](Cc1c[nH]cn1)NC(=O)[C@H](CC(=O)O)NC(=O)[C@H](CO)NC(=O)[C@@H](NC(=O)[C@](C)(Cc1ccccc1F)NC(=O)[C@@H](NC(=O)CNC(=O)[C@H](CCC(=O)O)NC(=O)C(C)(C)NC(=O)[C@@H](N)Cc1ccc(O)cc1)[C@@H](C)O)[C@@H](C)O)[C@@H](C)CC)[C@@H](C)O)[C@@H](C)CC)C(=O)N[C@@H](CCC(=O)O)C(=O)NCC(=O)NCC(=O)N1CCC[C@H]1C(=O)N[C@@H](CO)C(=O)N[C@@H](CO)C(=O)NCC(N)=O) [Peptide 167] | 0.0487
Y[Aib]EGT[αMePhe(2-F)]TSDHSI[αMeL]LDEK([AEEA-AEEA-γGlu-C20 diacid])AQ[Aib]EFIEYLIEGGPSSGAPPPS-NH2 (N-terminus assumed; SMILES CC[C@H](C)[C@H](NC(=O)[C@H](CC(C)C)NC(=O)[C@H](Cc1ccc(O)cc1)NC(=O)[C@H](CCC(=O)O)NC(=O)[C@@H](NC(=O)[C@H](Cc1ccccc1)NC(=O)[C@H](CCC(=O)O)NC(=O)C(C)(C)NC(=O)[C@H](CCC(N)=O)NC(=O)[C@H](C)NC(=O)[C@H](CCCCNC(=O)COCCOCCNC(=O)COCCOCCNC(=O)CC[C@H](NC(=O)CCCCCCCCCCCCCCCCCCC(=O)O)C(=O)O)NC(=O)[C@H](CCC(=O)O)NC(=O)[C@H](CC(=O)O)NC(=O)[C@H](CC(C)C)NC(=O)[C@](C)(CC(C)C)NC(=O)[C@@H](NC(=O)[C@H](CO)NC(=O)[C@H](Cc1c[nH]cn1)NC(=O)[C@H](CC(=O)O)NC(=O)[C@H](CO)NC(=O)[C@@H](NC(=O)[C@](C)(Cc1ccccc1F)NC(=O)[C@@H](NC(=O)CNC(=O)[C@H](CCC(=O)O)NC(=O)C(C)(C)NC(=O)[C@@H](N)Cc1ccc(O)cc1)[C@@H](C)O)[C@@H](C)O)[C@@H](C)CC)[C@@H](C)CC)C(=O)N[C@@H](CCC(=O)O)C(=O)NCC(=O)NCC(=O)N1CCC[C@H]1C(=O)N[C@@H](CO)C(=O)N[C@@H](CO)C(=O)NCC(=O)N[C@@H](C)C(=O)N1CCC[C@H]1C(=O)N1CCC[C@H]1C(=O)N1CCC[C@H]1C(=O)N[C@@H](CO)C(N)=O) [Peptide 154] | 1.23
Y[Aib]EGTFTSDYSILLDSK([AEEA-AEEA-γGlu-C20 diacid])AQ[Aib]AFIEYLIEGGPSSGAPPPS-NH2 (N-terminus assumed; SMILES CC[C@H](C)[C@H](NC(=O)[C@H](CC(C)C)NC(=O)[C@H](Cc1ccc(O)cc1)NC(=O)[C@H](CCC(=O)O)NC(=O)[C@@H](NC(=O)[C@H](Cc1ccccc1)NC(=O)[C@H](C)NC(=O)C(C)(C)NC(=O)[C@H](CCC(N)=O)NC(=O)[C@H](C)NC(=O)[C@H](CCCCNC(=O)COCCOCCNC(=O)COCCOCCNC(=O)CC[C@H](NC(=O)CCCCCCCCCCCCCCCCCCC(=O)O)C(=O)O)NC(=O)[C@H](CO)NC(=O)[C@H](CC(=O)O)NC(=O)[C@H](CC(C)C)NC(=O)[C@H](CC(C)C)NC(=O)[C@@H](NC(=O)[C@H](CO)NC(=O)[C@H](Cc1ccc(O)cc1)NC(=O)[C@H](CC(=O)O)NC(=O)[C@H](CO)NC(=O)[C@@H](NC(=O)[C@H](Cc1ccccc1)NC(=O)[C@@H](NC(=O)CNC(=O)[C@H](CCC(=O)O)NC(=O)C(C)(C)NC(=O)[C@@H](N)Cc1ccc(O)cc1)[C@@H](C)O)[C@@H](C)O)[C@@H](C)CC)[C@@H](C)CC)C(=O)N[C@@H](CCC(=O)O)C(=O)NCC(=O)NCC(=O)N1CCC[C@H]1C(=O)N[C@@H](CO)C(=O)N[C@@H](CO)C(=O)NCC(=O)N[C@@H](C)C(=O)N1CCC[C@H]1C(=O)N1CCC[C@H]1C(=O)N1CCC[C@H]1C(=O)N[C@@H](CO)C(N)=O) [Peptide 9] | 0.314
Y[Aib][cTA]GT[αMeF]TSDYSI[αMeL]LDEK([AEEA-AEEA-γGlu-C20 diacid])AQ[Aib]AFIEYLIEGGPSSGAPPPS-NH2 (reading uncertain) [Peptide 120] | 0.319
YXEGTXTSDYSIXLDEKAQXAFIEYLIEGGPSSGAPPPS (Aib2; αMeF6; αMeL13; K17((2-[2-(2-Amino-ethoxy)-ethoxy]-acetyl)2-(γGlu)-CO-(CH2)18-CO2H); Aib20; C-terminal NH2) [Peptide 115] | 0.743
YXEGTXTSDYSIXLDEKAQXEFIEYLIEGGPSSGAPPPS (Aib2; αMeF(2F)6; αMeL13; K17((2-[2-(2-Amino-ethoxy)-ethoxy]-acetyl)2-(γGlu)-CO-(CH2)18-CO2H); Aib20; C-terminal NH2) [Peptide 118] | 1.13
YXEGTXTSDXSIXLDEKAQXEFIEYLIEGGPSSGAPPPS (Aib2; αMeF(2F)6; cTA10; αMeL13; K17((2-[2-(2-Amino-ethoxy)-ethoxy]-acetyl)2-(γGlu)-CO-(CH2)18-CO2H); Aib20; C-terminal NH2) [Peptide 155] | 0.0978
YXEGTXTSDHSIXLDEKAQXTFIXYLIEGGPSSGAPPPS (Aib2; αMeF(2F)6; αMeL13; K17((2-[2-(2-Amino-ethoxy)-ethoxy]-acetyl)2-(γGlu)-CO-(CH2)18-CO2H); Aib20; D-Glu24; C-terminal NH2) [Peptide 168] | 0.0323
YXEGTXTSDHSIXLDEKAQXTFIXYLIEGGPSSGAPPPS (Aib2; αMeF(2F)6; αMeL13; K17((2-[2-(2-Amino-ethoxy)-ethoxy]-acetyl)2-(γGlu)-CO-(CH2)16-CO2H); Aib20; D-Glu24; C-terminal NH2) [Peptide 169] | 0.0136
YXEGTXTSDYSIXLDEKAQXEFIXYLIEGGPSSGAPPPS (Aib2; αMeF(2F)6; αMeL13; K17((2-[2-(2-Amino-ethoxy)-ethoxy]-acetyl)2-(γGlu)-CO-(CH2)18-CO2H); Aib20; Aib24; C-terminal NH2) [Peptide 152] | 0.484
YXEGTXTSDYSIXLDKKAQHXFIEYLIEGGPSSGAPPPS (Aib2; αMeF6; αMeL13; K17((2-[2-(2-Amino-ethoxy)-ethoxy]-acetyl)2-(γGlu)-CO-(CH2)18-CO2H); Aib21; C-terminal NH2) [Peptide 144] | 0.851
YXEGTXTSDYSIXLDEKAQXEFISYLIEGGPSSGAPPPS (Aib2; αMeF(2F)6; αMeL13; K17((2-[2-(2-Amino-ethoxy)-ethoxy]-acetyl)2-(γGlu)-CO-(CH2)18-CO2H); Aib20; C-terminal NH2) [Peptide 150] | 0.79
YXEGTXTSDYSIXLDKKAQXTFIEYLIEGGPSSGAPPPS (Aib2; αMeF6; αMeL13; K17((2-[2-(2-Amino-ethoxy)-ethoxy]-acetyl)2-(γGlu)-CO-(CH2)18-CO2H); Aib20; C-terminal NH2) [Peptide 139] | 1.13
YXEGTXTSDYSIXLDEKAQXEFIVYLIEGGPSSGAPPPS (Aib2; αMeF(2F)6; αMeL13; K17((2-[2-(2-Amino-ethoxy)-ethoxy]-acetyl)2-(γGlu)-CO-(CH2)18-CO2H); Aib20; C-terminal NH2) [Peptide 149] | 0.484
YXEGTXTSDLSILLDKKAQXAFIEYLIEGGPSSGAPPPS (Aib2; αMeF6; K17((2-[2-(2-Amino-ethoxy)-ethoxy]-acetyl)2-(γGlu)-CO-(CH2)18-CO2H); Aib20; C-terminal NH2) [Peptide 129] | 0.543
YXEGTXTSDXSIXLDEKAQXEFIEYLIEGGPSSGAPPPS (Aib2; αMeF(2F)6; 3Pal10; αMeL13; K17((2-[2-(2-Amino-ethoxy)-ethoxy]-acetyl)2-(γGlu)-CO-(CH2)18-CO2H); Aib20; C-terminal NH2) [Peptide 157] | 1.25
YXEGTXTSDHSIXLDXKAQXTFIXYLIEGGPSSGAPPPS (Aib2; αMeF(2F)6; αMeL13; Orn16; K17((2-[2-(2-Amino-ethoxy)-ethoxy]-acetyl)2-(γGlu)-CO-(CH2)18-CO2H); Aib20; D-Glu24; C-terminal NH2) [Peptide 171] | 0.0609
YXEGTXTSDYSIXLDKKAQXAFIEYLIEAGPSSGAPPPS (Aib2; αMeF6; αMeL13; K17((2-[2-(2-Amino-ethoxy)-ethoxy]-acetyl)2-(γGlu)-CO-(CH2)18-CO2H); Aib20; C-terminal NH2) [Peptide 126] | 0.869
YXEGTXTSDYSIXLDKKAQXXFIEYLIEGGPSSGAPPPS (Aib2; αMeF6; αMeL13; K17((2-[2-(2-Amino-ethoxy)-ethoxy]-acetyl)2-(γGlu)-CO-(CH2)18-CO2H); Aib20; Aib21; C-terminal NH2) [Peptide 143] | 0.714
YXEGTXTSDYSIXLDKKAQXDFIEYLIEGGPSSGAPPPS (Aib2; αMeF6; αMeL13; K17((2-[2-(2-Amino-ethoxy)-ethoxy]-acetyl)2-(γGlu)-CO-(CH2)18-CO2H); Aib20; C-terminal NH2) [Peptide 140] | 1.16
YXEGTXTSDYSIXLDKKAQXAFIEYLIEGGPSSGAPPPS (Aib2; αMeF6; αMeL13; K17((2-[2-(2-Amino-ethoxy)-ethoxy]-acetyl)2-(γGlu)2-CO-(CH2)18-CO2H); Aib20; C-terminal NH2) [Peptide 125] | 1.31
YXEGTXTSDHSILLDKKAQXAFIEYLIEGGPSSGAPPPS (Aib2; αMeF6; K17((2-[2-(2-Amino-ethoxy)-ethoxy]-acetyl)2-(γGlu)-CO-(CH2)18-CO2H); Aib20; C-terminal NH2) [Peptide 128] | 0.7
YXEGTXTSDYSIXLDEKAQXEFIAYLIEGGPSSGAPPPS (Aib2; αMeF(2F)6; αMeL13; K17((2-[2-(2-Amino-ethoxy)-ethoxy]-acetyl)2-(γGlu)-CO-(CH2)18-CO2H); Aib20; C-terminal NH2) [Peptide 148] | 0.859
YXEGTXTSDYSIXLDEKAQXEFIHYLIEGGPSSGAPPPS (Aib2; αMeF(2F)6; αMeL13; K17((2-[2-(2-Amino-ethoxy)-ethoxy]-acetyl)2-(γGlu)-CO-(CH2)18-CO2H); Aib20; C-terminal NH2) [Peptide 153] | 0.501
YXEGTXTSDYSIXLDKKAQXXFIEYLIEGGPSSGAPPPS (Aib2; αMeF6; αMeL13; K17((2-[2-(2-Amino-ethoxy)-ethoxy]-acetyl)2-(γGlu)-CO-(CH2)18-CO2H); Aib20; Aad21; C-terminal NH2) [Peptide 137] | 1.25
YXEGTXTSDYSIXLDEKAQXEFIPYLIEGGPSSGAPPPS (Aib2; αMeF(2F)6; αMeL13; K17((2-[2-(2-Amino-ethoxy)-ethoxy]-acetyl)2-(γGlu)-CO-(CH2)18-CO2H); Aib20; C-terminal NH2) [Peptide 151] | 0.0278
YXEGTFTSDYSIXLDKKAQXAFIEYLIEGGPSSGAPPPS (Aib2; αMeL13; K17((2-[2-(2-Amino-ethoxy)-ethoxy]-acetyl)2-(γGlu)-CO-(CH2)18-CO2H); Aib20; C-terminal NH2) [Peptide 20] | 0.577
YXEGTXTSDYSIXLDEKAQXEFIXYLIEGGPSSGAPPPS (Aib2; αMeF(2F)6; αMeL13; K17((2-[2-(2-Amino-ethoxy)-ethoxy]-acetyl)2-(γGlu)-CO-(CH2)18-CO2H); Aib20; Aad24; C-terminal NH2) [Peptide 147] | 1.13
